{"source": "paper PMC12455474", "about": "“Single‐Molecule Protein Profiling Using Nanopores and Dimeric Aptamer‐Modified DNA Carriers”", "binders": {"B1": {"name": "HD1 carrier + HD22 carrier (thrombin probes 1 and 2) (structured_DNA)", "DNA 1": "GGGCGGCGACCTTTTTTTGGTTGGTGTGGTTGG", "DNA 2": "GGGCGGCGACCTTTTTTTAGTCCGTGGTAGGGCAGGTTGGGGTGACT", "modifications": "5' phosphate on probes, ligated to carrier"}, "B2": {"name": "PDGF probe carrier (structured_DNA)", "DNA": "GGGCGGCGACCTTTTTTTCACAGGCTACGGCACGTAGAGCATCACCATGATCCTGTG", "modifications": "5' phosphate, ligated to carrier"}}, "key": {"[1]": {"target": "VEGF-165 (human, UniProt P15692-4 27-191)", "sequence (P15692 other isoform, or with tags, fused parts or gaps)": "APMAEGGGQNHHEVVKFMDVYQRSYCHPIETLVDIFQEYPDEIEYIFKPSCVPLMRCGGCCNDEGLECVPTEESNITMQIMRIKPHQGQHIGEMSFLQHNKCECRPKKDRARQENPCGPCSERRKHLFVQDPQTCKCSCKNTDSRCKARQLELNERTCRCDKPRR", "assay": "single-molecule nanopore (carrier dimerization, biphasic Hill fit); apparent sandwich Kd; 200 pM carrier; Carriers (200 pM total) incubated with protein at 37 °C for 2 h; nanopore measurement in 100 mM KCl, 10 mM Tris-EDTA pH 8.0, -300 mV", "conditions": "protein: recombinant; chain copies: 2; 2 identical carriers per protein dimer; first 12 nt pair with carrier overhang"}, "[2]": {"target": "human alpha-thrombin (human, UniProt P00734;P00734 328-363;364-622)", "assay": "single-molecule nanopore (carrier dimerization, biphasic Hill fit); apparent sandwich Kd; 100 pM of each carrier; hook effect at high thrombin; Carriers (200 pM total) incubated with protein at 37 °C for 2 h; nanopore measurement in 100 mM KCl, 10 mM Tris-EDTA pH 8.0, -300 mV"}, "[3]": {"target": "PDGF-BB (human, UniProt P01127 82-190)", "sequence (P01127 82-190)": "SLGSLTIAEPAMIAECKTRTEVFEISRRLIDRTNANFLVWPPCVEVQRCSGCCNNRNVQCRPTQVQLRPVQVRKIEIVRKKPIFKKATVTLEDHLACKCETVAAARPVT", "assay": "single-molecule nanopore (carrier dimerization, biphasic Hill fit); apparent sandwich Kd; 200 pM carrier; Carriers (200 pM total) incubated with protein at 37 °C for 2 h; nanopore measurement in 100 mM KCl, 10 mM Tris-EDTA pH 8.0, -300 mV", "conditions": "protein: recombinant; chain copies: 2; 2 identical carriers per protein dimer; first 12 nt pair with carrier overhang"}}, "data": [{"binder": "GGGCGGCGACCTTTTTTTTGTGGGGGTGGACGGGCCGGGTAGA (structured_DNA, 5' phosphate, ligated to carrier)", "note": "[VEGF probe (V7t1) carrier]", "values": [{"measurement": "Kd", "setting": "[1]", "result": "~0.3", "unit": "pM"}]}, {"binder": "B1", "values": [{"measurement": "Kd", "setting": "[2]", "result": "~9.1", "unit": "pM"}]}, {"binder": "B2", "values": [{"measurement": "Kd", "setting": "[3]", "result": "~1.8", "unit": "pM"}]}]}
